Results as given in the supplement of paper PMC10567573.

B1: FAM189A2 (parent)
chain: VAAALRYLQIFATRRSCIDESQIS
B2: PTPN9 (parent)
chain: ILFSLPPALDWDSVHVPGPHAMTI

Variants of: B1
Assay: protein stability index of a GFP-peptide fusion (GPS, HEK-293T) (PSI 1-6); higher = more stable
Conditions: c terminus: a fixed tail appended
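Further: lentivirally expressed fusions sorted by FACS into six bins by GFP to DsRed ratio, PSI derived from sequencing read proportions per bin multiplied by bin number.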

Going from Q22D to Q22H, the protein stability index rises from 2.32 to 2.61.

Going from Q22G to Q22T, the protein stability index falls from 3 to 1.07.

First: Q22N
Second: Q22W
The protein stability index of the first is lower: 1.77 for the first, 3.61 for the second.

First: Q22F
Second: I23M
The protein stability index of the first is higher: 2.04 for the first, 1.35 for the second.

Compared with I23F, I23Y is higher in protein stability index: 2.9 for the first, 3.27 for the second.

Compared with I23N, I23K is lower in protein stability index: 3.01 for the first, 1.94 for the second.

First: I23L
Second: I23R
The protein stability index of the first is lower: 1.61 for the first, 1.91 for the second.

Compared with I23T, I23E is higher in protein stability index: 2.18 for the first, 2.76 for the second.

Compared with D19R, D19N is lower in protein stability index: 2.05 for the first, 2.04 for the second.

First: D19M
Second: D19Y
The protein stability index of the first is lower: 3.73 for the first, 4.69 for the second.

Going from D19Q to D19W, the protein stability index rises from 1.13 to 4.35.

First: R6N
Second: R6E
The protein stability index of the first is lower: 1.23 for the first, 2.75 for the second.

Compared with R6H, R6V is lower in protein stability index: 2.98 for the first, 2.96 for the second.

First: R6G
Second: A3I
The protein stability index of the first is lower: 1.81 for the first, 4.72 for the second.

Compared with A3N, A3G is lower in protein stability index: 2.98 for the first, 2.61 for the second.

Compared with A3E, A3V is higher in protein stability index: 2.34 for the first, 3.92 for the second.

Going from C17V to C17P, the protein stability index rises from 1.27 to 2.05.

Compared with C17L, C17T is higher in protein stability index: 1.58 for the first, 2.17 for the second.

Going from C17S to C17A, the protein stability index falls from 1.74 to 1.72.

First: C17Y
Second: A12F
The protein stability index of the first is higher: 3.8 for the first, 2.03 for the second.

Compared with A12D, A12Q is higher in protein stability index: 1.97 for the first, 2.29 for the second.

Compared with A12P, A12N is lower in protein stability index: 3.67 for the first, 1.28 for the second.

Going from A12T to A12H, the protein stability index rises from 1.97 to 2.87.

First: A12S
Second: T13V
The protein stability index of the first is higher: 3.61 for the first, 2.99 for the second.

First: T13A
Second: T13R
The protein stability index of the first is higher: 1.71 for the first, 1.51 for the second.

Going from Q9L to Q9E, the protein stability index rises from 2.47 to 3.07.

First: Q9I
Second: E20R
The protein stability index of the first is higher: 3.15 for the first, 1.24 for the second.

Going from E20N to E20Q, the protein stability index falls from 2.85 to 2.35.

First: E20G
Second: E20M
The protein stability index of the first is lower: 2.34 for the first, 2.92 for the second.

First: E20A
Second: E20K
The protein stability index of the first is lower: 1.65 for the first, 3.19 for the second.

Compared with E20Y, E20P is higher in protein stability index: 3.14 for the first, 3.3 for the second.

S16Q and S16E are the same in protein stability index: 1.79 for the first, 1.79 for the second.

Compared with S16N, S16V is higher in protein stability index: 1.57 for the first, 2.01 for the second.

Compared with S16C, S16I is lower in protein stability index: 1.87 for the first, 1.5 for the second.

First: S16A
Second: F11H
The protein stability index of the first is higher: 3.14 for the first, 2.04 for the second.

First: F11Y
Second: F11G
The protein stability index of the first is higher: 2.36 for the first, 1.74 for the second.

First: F11P
Second: F11C
The protein stability index of the first is lower: 2.1 for the first, 4.31 for the second.

Compared with F11A, F11K is lower in protein stability index: 2.69 for the first, 2.03 for the second.

Compared with R15T, R15A is lower in protein stability index: 2.69 for the first, 2.44 for the second.

First: R15S
Second: R15K
The protein stability index of the first is lower: 1.99 for the first, 2.62 for the second.

First: R15L
Second: S24Q
The protein stability index of the first is lower: 1.35 for the first, 2.04 for the second.

Going from S24G to S24E, the protein stability index falls from 2.54 to 1.52.

Going from S24T to S24Y, the protein stability index falls from 2.85 to 1.78.

Compared with S24R, S24K is lower in protein stability index: 3.04 for the first, 1.16 for the second.

First: S24M
Second: L8G
The protein stability index of the first is higher: 2.07 for the first, 1.34 for the second.

Compared with L8F, L8K is lower in protein stability index: 2.23 for the first, 1.89 for the second.

Going from L8A to L8Y, the protein stability index rises from 2.36 to 3.39.

First: L8S
Second: L8D
The protein stability index of the first is lower: 1.9 for the first, 2.44 for the second.

Going from L8T to S21H, the protein stability index rises from 2.02 to 2.45.

Going from S21I to S21R, the protein stability index falls from 4.41 to 2.78.

Compared with S21Q, S21N is lower in protein stability index: 2.85 for the first, 1.73 for the second.

First: S21W
Second: S21D
The protein stability index of the first is higher: 2.67 for the first, 2.28 for the second.

Going from S21E to I18H, the protein stability index falls from 2.91 to 1.52.

First: I18Q
Second: I18Y
The protein stability index of the first is lower: 1.95 for the first, 2.54 for the second.

Going from I18A to I18S, the protein stability index falls from 2.58 to 2.14.

Compared with Y7S, Y7M is lower in protein stability index: 2.92 for the first, 2.22 for the second.

Compared with Y7H, Y7I is lower in protein stability index: 2.25 for the first, 1.99 for the second.

First: Y7N
Second: Y7F
The protein stability index of the first is lower: 1.98 for the first, 3.33 for the second.

First: Y7V
Second: A2K
The protein stability index of the first is lower: 2.4 for the first, 3.28 for the second.

Going from A2G to A2W, the protein stability index rises from 2.53 to 3.06.

Going from A2C to L5S, the protein stability index falls from 2.64 to 1.41.

Going from L5R to L5Y, the protein stability index rises from 2.94 to 3.26.

Going from L5F to V1D, the protein stability index falls from 2.43 to 1.82.

Going from V1G to V1N, the protein stability index rises from 1.67 to 1.89.

Compared with V1C, V1Y is lower in protein stability index: 1.68 for the first, 1.07 for the second.

Compared with V1P, V1H is higher in protein stability index: 1.56 for the first, 2.36 for the second.

Compared with V1S, V1A is higher in protein stability index: 1.38 for the first, 3.21 for the second.

First: V1T
Second: V1Q
The protein stability index of the first is higher: 3.71 for the first, 2.38 for the second.

Compared with R14N, R14Y is higher in protein stability index: 1.5 for the first, 3.44 for the second.

First: R14I
Second: R14G
The protein stability index of the first is higher: 3.84 for the first, 1.88 for the second.

Going from R14E to R14A, the protein stability index rises from 1.12 to 1.61.

Going from R14F to R14D, the protein stability index falls from 2.54 to 2.37.

First: I10N
Second: I10S
The protein stability index of the first is higher: 2.51 for the first, 2.19 for the second.

Going from I10E to I10R, the protein stability index rises from 2.08 to 2.55.

Going from I10P to I10Y, the protein stability index falls from 2.77 to 2.65.

Compared with A4H, A4Y is higher in protein stability index: 1.89 for the first, 2.02 for the second.

Going from A4R to A4L, the protein stability index rises from 2.09 to 3.72.

Variants of: B2
Assay: as above
Conditions: c terminus: a fixed tail appended

Going from D10K to D10L, the protein stability index falls from 3.67 to 2.22.

Compared with D10V, D10T is higher in protein stability index: 2.05 for the first, 2.95 for the second.

Compared with D10M, D10W is lower in protein stability index: 3.42 for the first, 1.9 for the second.

First: D10E
Second: D10I
The protein stability index of the first is lower: 1.63 for the first, 2.2 for the second.

Going from D10G to D10H, the protein stability index rises from 2.28 to 3.79.

Compared with D10A, D10N is lower in protein stability index: 2.86 for the first, 1.73 for the second.

With D10F the protein stability index was 2.68.
